Measurements reported in publication doi:10.1101/609503.

Target: MepS (E. coli) (UniProt P0AFV4)
Test: MST

Sequence of MepS (E. coli) (P0AFV4 27-188): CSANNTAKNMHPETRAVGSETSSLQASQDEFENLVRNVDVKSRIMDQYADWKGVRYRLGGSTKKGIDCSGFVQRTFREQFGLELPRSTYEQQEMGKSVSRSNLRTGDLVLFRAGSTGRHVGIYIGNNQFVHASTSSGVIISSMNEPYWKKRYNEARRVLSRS

NlpI (soluble version, residues 19-294) (from UniProt P0AFB1 19-294) (natural protein)
Kd: 145 nM
